# Measurements taken from patent publication US20260266848A1, “COMPOSITIONS AND METHODS FOR DIAGNOSING AND TREATING DYSTONIA” (Duke University, priority 2023, published 2026).
# B1: Cnn3 (protein, UniProt Q9DAW9 1-330, looked up)
# Calponin-3: MTHFNKGPSYGLSAEVKNKIASKYDQQAEEDLRNWIEEVTGLGIGTNFQLGLKDGIILCELINKLQPGSVKKVNESSLNWPQLENIGNFIKAIQAYGMKPHDIFEANDLFENGNMTQVQTTLVALAGLAKTKGFHTTIDIGVKYAEKQTRRFDEGKLKAGQSVIGLQMGTNKCASQAGMTAYGTRRHLYDPKMQTDKPFDQTTISLQMGTNKGASQAGMLAPGTRRDIYDQKLTLQPVDNSTISLQMGTNKVASQKGMSVYGLGRQVYDPKYCAAPTEPVIHNGSQGTGTNGSEISDSDYQAEYPDEYHGEYPDDYPREYQYGDDQGIDY
# B2: Extl2 (protein, UniProt Q9ES89 1-330, looked up)
# Exostosin-like 2: MMRGCHICKLPGRVMGIRVLRFSLVVILVLLLVAGALTNLLPNIKEDKMLTLRREIKSPSKSALDSFTLIMQTYNRTDLLLRLLNHYQAVPSLHKVIVVWNNVGEKGPEELWNSLGPHPIPVIFKPQTANKMRNRLQVFPEVETNAVLMVDDDTLISAQDLVFAFSIWQQFPDQIIGFVPRKHVSTSSGIYSYGGFELQTPGPGNGDQYSMVLIGASFFNSKYLELFQKQPAAVHALIDETQNCDDIAMNFLVTRHTGKPSGIFVKPINMVNLEKETNGYSGMWHRAEHFLQRSYCINKLVNIYDGMPLKYSNIMISQFGFPYANHKSKM
# B3: Cxadr (protein, UniProt P97792 20-365, looked up)
# Coxsackievirus and adenovirus …: LSITTPEQRIEKAKGETAYLPCKFTLSPEDQGPLDIEWLISPSDNQIVDQVIILYSGDKIYDNYYPDLKGRVHFTSNDVKSGDASINVTNLQLSDIGTYQCKVKKAPGVANKKFLLTVLVKPSGTRCFVDGSEEIGNDFKLKCEPKEGSLPLQFEWQKLSDSQTMPTPWLAEMTSPVISVKNASSEYSGTYSCTVQNRVGSDQCMLRLDVVPPSNRAGTIAGAVIGTLLALVLIGAILFCCHRKRREEKYEKEVHHDIREDVPPPKSRTSTARSYIGSNHSSLGSMSPSNMEGYSKTQYNQVPSEDFERAPQSPTLAPAKVAAPNLSRMGAVPVMIPAQSKDGSIV
# B4: Fus (protein, UniProt P56959 1-518, looked up)
# RNA-binding protein FUS: MASNDYTQQATQSYGAYPTQPGQGYSQQSSQPYGQQSYSGYGQSADTSGYGQSSYGSSYGQTQNTGYGTQSAPQGYGSTGGYGSSQSSQSSYGQQSSYPGYGQQPAPSSTSGSYGGSSQSSSYGQPQSGGYGQQSGYGGQQQSYGQQQSSYNPPQGYGQQNQYNSSSGGGGGGGGGNYGQDQSSMSGGGGGGGYGNQDQSGGGGGGYGGGQQDRGGRGRGGGGGYNRSSGGYEPRGRGGGRGGRGGMGGSDRGGFNKFGGPRDQGSRHDSEQDNSDNNTIFVQGLGENVTIESVADYFKQIGIIKTNKKTGQPMINLYTDRETGKLKGEATVSFDDPPSAKAAIDWFDGKEFSGNPIKVSFATRRADFNRGGGNGRGGRGRGGPMGRGGYGGGGSGGGGRGGFPSGGGGGGGQQRAGDWKCPNPTCENMNFSWRNECNQCKAPKPDGPGGGPGGSHMGGNYGDDRRGRGGYDRGGYRGRGGDRGGFRGGRGGGDRGGFGPGKMDSRGEHRQDRRERPY
# B5: Ptk2 (protein, UniProt P34152 2-1052, looked up)
# Focal adhesion kinase 1: AAAYLDPNLNHTPSSSTKTHLGTGMERSPGAMERVLKVFHYFESSSEPTTWASIIRHGDATDVRGIIQKIVDSHKVKHVACYGFRLSHLRSEEVHWLHVDMGVSSVREKYELAHPPEEWKYELRIRYLPKGFLNQFTEDKPTLNFFYQQVKSDYMQEIADQVDQEIALKLGCLEIRRSYWEMRGNALEKKSNYEVLEKDVGLKRFFPKSLLDSVKAKTLRKLIQQTFRQFANLNREESILKFFEILSPVYRFDKECFKCALGSSWIISVELAIGPEEGISYLTDKGCNPTHLADFNQVQTIQYSNSEDKDRKGMLQLKIAGAPEPLTVTAPSLTIAENMADLIDGYCRLVNGATQSFIIRPQKEGERALPSIPKLANSEKQGMRTHAVSVSETDDYAEIIDEEDTYTMPSTRDYEIQRERIELGRCIGEGQFGDVHQGVYLSPENPALAVAIKTCKNCTSDSVREKFLQEALTMRQFDHPHIVKLIGVITENPVWIIMELCTLGELRSFLQVRKYSLDLASLILYAYQLSTALAYLESKRFVHRDIAARNVLVSSNDCVKLGDFGLSRYMEDSTYYKASKGKLPIKWMAPESINFRRFTSASDVWMFGVCMWEILMHGVKPFQGVKNNDVIGRIENGERLPMPPNCPPTLYSLMTKCWAYDPSRRPRFTELKAQLSTILEEEKVQQEERMRMESRRQATVSWDSGGSDEAPPKPSRPGYPSPRSSEGFYPSPQHMVQTNHYQVSGYPGSHGIPAMAGSIYQGQASLLDQTELWNHRPQEMSMWQPSVEDSAALDLRGMGQVLPPHLMEERLIRQQQEMEEDQRWLEKEERFLKPDVRLSRGSIDREDGSFQGPTGNQHIYQPVGKPDPAAPPKKPPRPGAPGHLSNLSSISSPADSYNEGVKLQPQEISPPPTANLDRSNDKVYENVTGLVKAVIEMSSKIQPAPPEEYVPMVKEVGLALRTLLATVDETIPALPASTHREIEMAQKLLNSDLGELISKMKLAQQYVMTSLQQEYKKQMLTAAHALAVDAKNLLDVIDQARLKMLGQTRPH
# B6: Nap1l4 (protein, UniProt Q78ZA7 2-375, looked up)
# Nucleosome assembly protein …: AENSLSDGGPADSVEAAKNASNTEKLTDQVMQNPQVLAALQERLDNVSHTPSSYIETLPKAVKRRINALKQLQVRCAHIEAKFYEEVHDLERKYAALYQPLFDKRREFITGDVEPTDAESAWHSENEEEDKLAGDMKNKVVIAEKEAATVEELNPKGIPEFWFTIFRNVDMLSELVQEYDEPILKHLQDIKVKFSDPGQPMSFVLEFHFEPNDYFTNPVLTKTYKMKSEPDKADPFSFEGPEIVDCDGCTIDWKKGKNVTVKTIKKKQKHKGRGTVRTITKQVPNESFFNFFSPLKASGDGESLDEDSEFTLASDFEIGHFFRERIVPRAVLYFTGEAIEDDDNFEEGEEGEEEELEGDEEGEDEDDADVNPKV
# B7: Uso1 (protein, UniProt Q9Z1Z0 1-959, looked up)
# General vesicular transport …: MNFLRGVMGGQSAGPQHTEAETIQKLCDRVASSTLLDDRRNAVRALKSLSKKYRLEVGIQAMEHLIHVLQTDRSDSEIIAYALDTLYNIISNDEEEELEENSTRQSEDLGSQFTEIFIKQPENVTLLLSLLEEFDFHVRWPGVRLLTSLLKQLGPPVQQIILVSPMGVSRLMDLLADSREIIRNDGVLLLQALTRSNGAIQKIVAFENAFERLLDIITEEGNSDGGIVVEDCLILLQNLLKTNNSNQNFFKEGSYIQRMKPWFEVGEENSGWSAQKVTNLHLMLQLVRVLVSPTNPPGATSSCQKAMFQCGLLQQLCTILMATGIPADILTETINTVSEVIRGCQVNQDYFASVNAPSNPPRPAIVVLLMSMVNERQPFVLRCAVLYCFQCFLYKNEKGQGEIVATLLPSTIDATGNSVSAGQLLCGGLFSTDSLSNWCAAVALAHALQGNATQKEQLLRVQLATSIGNPPVSLLQQCTNILSQGSKIQTRVGLLMLLCTWLSNCPIAVTHFLHNSANVPFLTGQIAENLGEEEQLVQGLCALLLGISIYFNDNSLENYTKEKLKQLIEKRIGKENFIEKLGFISKHELYSRASQKPQPNFPSPEYMIFDHEFTKLVKELEGVITKAIYKSSEEDKKEEEVKKTLEQHDNIVTHYKNMIREQDLQLEELKQQVSTLKCQNEQLQTAVTQQASQIQQHKDQYNLLKVQLGKDNHHQGSHGDGAQVNGIQPEEISRLREEIEELKSQQALLQGQLAEKDSLIENLKSSQASGMSEQASATCPPRDPEQVAELKQELTALKSQLCSQSLEITRLQTENCELLQRAETLAKSVPVEGESEHVSAAKTTDVEGRLSALLQETKELKNEIKALSEERTAIQKQLDSSNSTIAILQTEKDKLDLEVTDSKKEQDDLLVLLADQDQKILSLKSKLKDLGHPVEEEDESGDQEDDDDEIDDGDKDQDI
# B8: Impa1 (protein, UniProt O55023 1-277, looked up)
# Inositol monophosphatase 1: MADPWQECMDYAVILARQAGEMIREALKNEMDVMIKSSPADLVTVTDQKVEKMLMSSIKEKYPCHSFIGEESVAAGEKTVFTESPTWFIDPIDGTTNFVHRFPFVAVSIGFLVNKEMEFGIVYSCVEDKMYTGRKGKGAFCNGQKLQVSQQEDITKSLLVTELGSSRKPETLRIVLSNMEKLCSIPIHGIRSVGTAAVNMCLVATGGADAYYEMGIHCWDMAGAGIIVTEAGGVLMDVTGGPFDLMSRRIIAANSITLAKRIAKEIEIIPLQRDDES
# B9: Vapa (protein, UniProt Q9WV55 2-249, looked up)
# Vesicle-associated membrane …: ASASGAMAKHEQILVLDPPSDLKFKGPFTDVVTTNLKLQNPSDRKVCFKVKTTAPRRYCVRPNSGIIDPGSIVTVSVMLQPFDYDPNEKSKHKFMVQTIFAPPNISDMEAVWKEAKPDELMDSKLRCVFEMPNENDKLNDMEPSKAVPLNASKQDGPLPKPHSVSLNDTETRKLMEECKRLQGEMMKLSEENRHLRDEGLRLRKVAHSDKPGSTSAVSFRDNVTSPLPSLLVVIAAIFIGFFLGKFIL
# Tested on: WT MEF EVs
# Experiment: Quantitative LC-MS/MS proteomics of EVs from ISRIB-treated WT MEF cultures
# Type: cell-based, mouse
# Design: key to ISRIB and DYT Parallel Direction / ISRIB and DYT Parallel Direction, Ctdsp1 / ISRIB and DYT Parallel Direction, Pcdh19 / ISRIB and DYT Parallel Direction, Tspan7 / ISRIB and DYT Parallel Direction, Myo1e / ISRIB and DYT Parallel Direction, Plpp3 / ISRIB and DYT Parallel Direction, Sh3bp4 / ISRIB and DYT Parallel Direction, Dnajc7 / ISRIB and DYT Parallel Direction, Drg1 / ISRIB and DYT Parallel Direction, Maea: YES = protein abundance effect similar to DYT/WT
# Details: EV protein abundance, ISRIB-treated WT vs WT
row,Molecule,WT + ISRIB/WT Cohen's d
1,B1,2.76
2,B2,−1.42
3,B3,1.72
4,B4,0.85
5,B5,−3.26
6,B6,2.43
7,B7,2.44
8,B8,1.73
9,B9,3.18

# Same assay, conditions: EV protein abundance, WT + ISRIB vs WT, direction compared with DYT/WT
row,Molecule,ISRIB and DYT Parallel Direction
1,B2,YES
2,B5,YES

# Tested on: DYT-TOR1A MEF EVs
# Experiment: Quantitative LC-MS/MS proteomics of EVs from drug-treated DYT-TOR1A MEF cultures (ritonavir, salubrinal)
# Type: cell-based, mouse
# Design: key to RTV Corrective Direction / RTV Corrective Direction, Grwd1 / RTV Corrective Direction, Srrm2 / RTV Corrective Direction, Rbm17 / RTV Corrective Direction, Dcaf8 / RTV Corrective Direction, Edil3 / RTV Corrective Direction, Timp3 / RTV Corrective Direction, Heatr3 / RTV Corrective Direction, Brd4 / RTV Corrective Direction, P3h4 / RTV Corrective Direction, Pacsin3 / RTV Corrective Direction, Naa50 / RTV Corrective Direction, Lpar6 / RTV Corrective Direction, Ndrg1 / RTV Corrective Direction, Kntc1 / RTV Corrective Direction, Cdk11b / RTV Corrective Direction, Sumo1 / RTV Corrective Direction, Lsm4 / RTV Corrective Direction, Hmga2 / RTV Corrective Direction, Cstf1 / RTV Corrective Direction, Tes / RTV Corrective Direction, Sbno1 / RTV Corrective Direction, Unc119b / RTV Corrective Direction, Cfdp1 / RTV Corrective Direction, Sec61b: YES = protein abundance effect opposite to DYT/WT
# Details: EV protein abundance, DYT + RTV (ritonavir) vs DYT, direction compared with DYT/WT
row,Molecule,RTV Corrective Direction
1,B1,YES
2,B2,YES
3,B3,YES
4,B4,YES
5,B5,YES
6,B6,YES
7,B7,YES
8,B8,YES
9,B9,YES

# Same assay, conditions: EV protein abundance, ritonavir (RTV)-treated DYT vs DYT
row,Molecule,DYT + RTV/DYT Cohen's d
1,B1,4.78
2,B2,0.12
3,B3,3.88
4,B4,11.94
5,B5,0.10
6,B6,5.74
7,B7,9.12
8,B8,10.89
9,B9,1.91
